In patent US20170081409A1 (AGENUS, published 2017):

Target: T1, human PD-1 expressed by activated (SEA-stimulated) primary human CD4+ T cells (human, UniProt Q15116 25-288)
T1 construct: whole, on cells; also called programmed cell death protein 1
Experiment: flow cytometry on SEA-stimulated human PBMC, CD4+ gate
Method: The anti-PD-1 antibodies AGEN2046w, AGEN2047w, and AGEN2034w were examined for binding to activated peripheral blood mononuclear cells (PBMCs) by flow cytometry. Cryopreserved human PBMCs prepared from unpurified buffy coats (Research Blood Components, Catalog number (Cat#) 002) or cryopreserved cynomolgus PBMCs (Worldwide Primates Inc., customer order) were plated at 10⁵ cells/well in RPMI1640 medium supplemented with Normocin™ (InvivoGen, Cat#ant-nr-1) and 10% heat-inactivated FBS (Gibco, Cat#16140063) in 96-well NUNCLON delta surface plates (NUNC™). The cells were cultured in the presence of 100 ng/ml of Staphylococcus Enterotoxin A (SEA; for human PBMCs) (Toxin Technologies, Cat#at101red) or Staphylococcus Enterotoxin B (SEB; for cynomolgus PBMCs) (Toxin Technology, Cat#bt202red) for 5 days at 37° C., 5% CO₂, and 97% humidity. […] The cells were washed twice with sample buffer and then resuspended in sample buffer and analyzed with a FACS Fortessa cytometer (Becton Dickinson). CD4+ T cells were gated and the mean fluorescence intensity (MFI) was recorded.
The binding of AGEN2034w to activated primary human T cells was measured again in a similar assay. […] Cells were analyzed with a FACS Fortessa cytometer (Becton Dickinson). CD4+ T cells were gated and the mean fluorescence intensity (MFI) of AGEN2034w-positive cells was determined.

T1 sequence (Q15116 25-288): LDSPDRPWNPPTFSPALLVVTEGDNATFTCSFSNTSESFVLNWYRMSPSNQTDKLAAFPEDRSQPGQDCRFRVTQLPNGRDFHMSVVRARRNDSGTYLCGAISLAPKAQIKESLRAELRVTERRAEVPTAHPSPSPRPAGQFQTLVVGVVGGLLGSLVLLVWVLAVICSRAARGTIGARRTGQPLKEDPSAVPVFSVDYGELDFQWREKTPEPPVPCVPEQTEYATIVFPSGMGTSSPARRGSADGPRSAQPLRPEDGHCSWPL

B1: AGEN2046w (antibody, human IgG1, kappa, V domains shown)
VH: QVQLVESGGGVVQPGRSLRLSCAASGFTFSSYGMHWVRQAPGKGLEWVAVIWYDGSNKYYADSVKGRFTISRDNSKNTLYLQMNSLRAEDTAVYYCASNVDYWGQGTLVTVSS
VL: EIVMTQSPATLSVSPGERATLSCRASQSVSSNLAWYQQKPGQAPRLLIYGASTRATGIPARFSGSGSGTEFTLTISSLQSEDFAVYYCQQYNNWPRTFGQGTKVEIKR
binding result: binds
